system: Escherichia coli TOP10; experiment: shrunken log2 fold change of peptide-encoding DNA abundance (4.5 h post-induction vs induction); higher = less antimicrobial activity (less host growth inhibition); details: time post-induction: 4.5 h; library: site-saturation at positions 5, 18, 19, 20
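Also: peptides expressed intracellularly from a pBAD plasmid library in pooled LB shake-flask culture, induced with 0.3% L-arabinose, DNA abundance read by NGS, three biological replicates, DESeq2 with apeglm shrinkage.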

| Sequence | shrunken log2 fold change |
| --- | --- |
| RRIRTRPPRLPRPRPRPPFWPRP | 0.379 |
| RRIRYRPPRLPRPRPRPYSVPRP | -0.0202 |
| RRIRERPPRLPRPRPRPDFSPRP | 0.0617 |
| RRIRQRPPRLPRPRPRPWNRPRP | 0.013 |
| RRIRSRPPRLPRPRPRPMPQPRP | 0.126 |
| RRIRWRPPRLPRPRPRPPYNPRP | -0.221 |
| RRIRIRPPRLPRPRPRPIFFPRP | -0.123 |
| RRIRTRPPRLPRPRPRPKHNPRP | -0.362 |
| RRIRIRPPRLPRPRPRPFVPPRP | -0.722 |
| RRIRIRPPRLPRPRPRPWTFPRP | 0.0921 |
| RRIRPRPPRLPRPRPRPPITPRP | -0.0969 |
| RRIRWRPPRLPRPRPRPHTDPRP | -0.283 |
| RRIRSRPPRLPRPRPRPFWIPRP | -0.299 |
| RRIRQRPPRLPRPRPRPMQAPRP | 0.116 |
| RRIRARPPRLPRPRPRPQWYPRP | -0.523 |
| RRIRARPPRLPRPRPRPMWAPRP | 0.557 |
| RRIRERPPRLPRPRPRPYDGPRP | -0.0116 |
| RRIRLRPPRLPRPRPRPKFRPRP | -0.0412 |
| RRIRRRPPRLPRPRPRPPKNPRP | 0.671 |
| RRIRGRPPRLPRPRPRPQQGPRP | 0.0431 |
| RRIRDRPPRLPRPRPRPDNFPRP | 0.0301 |

| Sequence | shrunken log2 fold change |
| --- | --- |
| RRIRCRPPRLPRPRPRPDPHPRP | -0.015 |
| RRIRDRPPRLPRPRPRPHEEPRP | 0.175 |
| RRIRRRPPRLPRPRPRPYCQPRP | -0.664 |
| RRIRQRPPRLPRPRPRPLWMPRP | -0.165 |
| RRIRTRPPRLPRPRPRPQCDPRP | -0.184 |
| RRIRQRPPRLPRPRPRPSMCPRP | -0.194 |
| RRIRLRPPRLPRPRPRPAGFPRP | 0.46 |
| RRIRDRPPRLPRPRPRPYMSPRP | -0.00753 |
| RRIRIRPPRLPRPRPRPLKWPRP | -0.535 |
| RRIRRRPPRLPRPRPRPMENPRP | 0.113 |
| RRIRCRPPRLPRPRPRPVFDPRP | -0.198 |
| RRIRMRPPRLPRPRPRPNIGPRP | -0.0302 |
| RRIRRRPPRLPRPRPRPSGWPRP | 0.333 |
| RRIRHRPPRLPRPRPRPCVTPRP | -0.609 |
| RRIRLRPPRLPRPRPRPCDCPRP | -0.0629 |
| RRIRLRPPRLPRPRPRPGCQPRP | -0.00705 |
| RRIRWRPPRLPRPRPRPHAAPRP | 0.45 |
| RRIRERPPRLPRPRPRPWRAPRP | 0.0397 |
| RRIRRRPPRLPRPRPRPIMGPRP | -0.267 |
| RRIRYRPPRLPRPRPRPNHQPRP | -0.573 |
| RRIRSRPPRLPRPRPRPPSIPRP | 0.2 |

| Sequence | shrunken log2 fold change |
| --- | --- |
| RRIRIRPPRLPRPRPRPKNWPRP | -0.035 |
| RRIRQRPPRLPRPRPRPFCVPRP | -0.0258 |
| RRIRERPPRLPRPRPRPYSSPRP | -0.0288 |
| RRIRNRPPRLPRPRPRPLLLPRP | -0.25 |
| RRIRHRPPRLPRPRPRPHKHPRP | -0.546 |
| RRIRKRPPRLPRPRPRPPQSPRP | 0.863 |
| RRIRDRPPRLPRPRPRPQYTPRP | -0.31 |
| RRIRVRPPRLPRPRPRPSLCPRP | -0.233 |
| RRIRFRPPRLPRPRPRPRMGPRP | 0.302 |
| RRIRRRPPRLPRPRPRPWELPRP | 0.0522 |
| RRIRMRPPRLPRPRPRPSTMPRP | -0.283 |
| RRIRARPPRLPRPRPRPDETPRP | 0.00253 |
| RRIRWRPPRLPRPRPRPAMDPRP | 0.109 |
| RRIRYRPPRLPRPRPRPYCGPRP | -0.456 |
| RRIRWRPPRLPRPRPRPWWVPRP | 0.13 |
| RRIRDRPPRLPRPRPRPQQCPRP | -0.00965 |
| RRIRNRPPRLPRPRPRPPIQPRP | 0.0569 |
| RRIRTRPPRLPRPRPRPASRPRP | 0.279 |
| RRIRNRPPRLPRPRPRPLYMPRP | -0.308 |
| RRIRLRPPRLPRPRPRPNFSPRP | -0.00932 |
| RRIRERPPRLPRPRPRPNYMPRP | -0.667 |

Reference: the supplement of paper PMC9112550, “Optimization of the antimicrobial peptide Bac7 by deep mutational scanning” (BMC Biology, 2022)
